Results taken from patent publication US20190375786A1, “STABLE PEPTIDES AND METHODS OF USE THEREOF” (Fred Hutchinson Cancer Research Center, priority 2016, published 2019).

Molecular target: trypsin (Sus scrofa, UniProt P00761)
Test: Trypsin digestion resistance of soluble peptide, RP-HPLC
Assay type: in vitro ADME, porcine
Design: purchased Sigma Aldrich 6567
Details: 500 U/ml trypsin (50 U per reaction), 30 minutes at 37.5° C.; HPLC
How it was run: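 12.5 μg soluble peptide digested with 500 U/ml porcine trypsin in PBS, 30 min at 37.5° C; quenched with soybean trypsin inhibitor, with or without 10 mM DTT reduction afterwards. Intact peptide assessed by C-18 RP-HPLC, 5-45% acetonitrile/0.1% TFA gradient over 10 min.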

trypsin, sequence (P00761 9-231): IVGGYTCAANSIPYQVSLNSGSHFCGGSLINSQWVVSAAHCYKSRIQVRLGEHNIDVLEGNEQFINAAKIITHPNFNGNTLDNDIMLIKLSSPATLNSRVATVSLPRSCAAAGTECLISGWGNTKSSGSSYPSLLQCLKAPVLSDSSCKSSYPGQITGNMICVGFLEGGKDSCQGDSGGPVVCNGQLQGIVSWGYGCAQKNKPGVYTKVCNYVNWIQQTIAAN

Row | Substance | resistance to trypsin digestion (in words)
1 | GSDCLPHLRRCRADNDCCGRRCRRRGTNAERRCR [SEQ ID NO: 1] | partially resistant

Same assay, conditions: 500 U/ml trypsin, 30 minutes at 37.5° C.; HPLC peak vs untreated peptide

Row | Substance | Resistance to Trypsin (500 U/ml)
2 | 48 (GSGIGDPVTCLKSGAICHPVFCPRRYKQIGTCGLPGTKCCKKP) [compound 48] | Low (A peptide classified as low indicates that the majority (over 75%) of the HPLC peak of the treated peptide disappeared as compared to the HPLC peak of the untreated peptide)
3 | 14 (GSSDYCSNDFCFFSCRRDRCARGDCENGKCVCKNCHLN) [compound 14] | Low (A peptide classified as low indicates that the majority (over 75%) of the HPLC peak of the treated peptide disappeared as compared to the HPLC peak of the untreated peptide)
4 | 20 (GSGHACYRNCWREGNDEETCKERC) [compound 20] | High (A peptide classified as high indicates that the majority (at least 75%) of the HPLC peak of the treated peptide is still present as compared to the HPLC peak of the untreated peptide)
5 | 1 (GSDCLPHLRRCRADNDCCGRRCRRRGTNAERRCR) [compound 1] | Moderate (A peptide classified as medium indicates that about half (between 25% and 75%) of the HPLC peak of the treated peptide disappeared as compared to the HPLC peak of the untreated peptide)
6 | 46 (GSDCKYKFENWGACDGGTGTKVRQGTLKKARYNAQCQETIRVTKPC) [compound 46] | Low (A peptide classified as low indicates that the majority (over 75%) of the HPLC peak of the treated peptide disappeared as compared to the HPLC peak of the untreated peptide)
7 | 26 (GSVGCEECPMHCKGKNANPTCDDGVCNCNV) [compound 26] | Moderate (A peptide classified as medium indicates that about half (between 25% and 75%) of the HPLC peak of the treated peptide disappeared as compared to the HPLC peak of the untreated peptide)

System: not listed separately
Test: Resistance to reduction by DTT, RP-HPLC
Assay type: physicochemical
Details: 10 mM DTT in PBS, room temperature, 30 minutes; HPLC peak vs untreated peptide
Protocol: Peptides were first suspended in 500 ul of ddH2O to a stock concentration of 2 mg/ml. Reactions were prepared by adding 12.5 ug of peptide from the stock solution to a 10 mM solution of DTT in PBS and allowed to incubate at room temperature for 30 minutes. Other reactions were prepared with 12.5 μg peptide with or without 500 U/ml pepsin in simulated gastric fluid (SGF; pH 1.05; […] sodium chloride in 0.7% (v/v) hydrochloric acid) and were incubated for 30 minutes at 37.5° C. Some reactions were quenched with a final concentration of 100 mM Tris base and 10 mM dithiothreitol (DTT). Some reactions were performed in all of the above components, including simulated gastric fluid, pepsin, Tris, and DTT (referred to as SPTD). Reversed phase HPLC (RP-HPLC) was run on samples using an Agilent 1260 HPLC equipped with a C-18 Poroshell 120B column. Sample were analyzed by a gradient method with a mobile phase of Solvent A (water with 0.1% TFA) and Solvent B (acetonitrile with 0.1% TFA). Solvent B was ramped up from 5%-45% of the mobile phase over a period of 10 minutes. Peptides were detected at an absorbance of 214 nm and 280 nm.
(§1) Peptides were first suspended in 500 μl of ddH2O to a stock concentration of 2 mg/ml. Reactions were prepared by adding 12.5 μg of peptide from the stock solution to a 10 mM solution of DTT in PBS and allowed to incubate at room temperature for 30 minutes. Other reactions were prepared with 12.5 μg peptide and 500 U/ml trypsin in 25 mM Tris/75 mM NaCl buffer (pH 7.0) and incubated for 30 minutes at 37.5° C. These reactions were then quenched with 5 μg of soybean trypsin inhibitor (I) and, in some cases, 10 mM dithiothreitol (DTT). Reversed phase HPLC (RP-HPLC) was run on samples using an Agilent 1260 HPLC equipped with a C-18 Poroshell 120B column. Sample were analyzed by a gradient method with a mobile phase of Solvent A (water with 0.1% TFA) and Solvent B (acetonitrile with 0.1% TFA). Solvent B was ramped up from 5%-45% of the mobile phase over a period of 10 minutes. For testing pepsin digestion resistance, reactions were prepared with 12.5 μg peptide with or without 500 U/ml pepsin in simulated gastric fluid (SGF; pH 1.05; […] sodium chloride in 0.7% (v/v) hydrochloric acid) and were incubated for 30 minutes at 37.5° C. For testing temperature resistance, peptides were incubated at 70° C., 75° C., or 100° C. for one hour in 0.5 mM PBS, pelleted, and then the supernatant was analyzed by HPLC.
This example illustrates peptide stability in biological conditions including in the presence of reducing agents, proteases, oxidative conditions, acidic conditions, and simulated gastric fluids. […] Various peptides were suspended in 500 μl of ddH2O at a stock concentration of 2 mg/ml. This was then diluted in accord with the reaction conditions to prevent adverse buffering effects. Reactions were prepared with 12.5 μg peptide dissolved in solution and, in some samples, additionally suspended in a 10 mM solution of DTT, simulated gastric fluid (pH 1.05; […] sodium chloride in 0.7% (v/v) hydrochloric acid), 500 U pepsin (5000 U/ml pepsin), 50 U trypsin (500 U/ml trypsin) with 1 mg/ml inhibitor in PBS, or a combination of any of these conditions. All protease reactions were incubated for 30 min at room temperature and then quenched. Pepsin reactions were quenched by adding Tris base to a final concentration of 0.075 M. Trypsin reactions were quenched by adding excess soybean trypsin inhibitor. RP-HPLC was then run on samples using an Agilent 1260 HPLC equipped with a C-18 Poroshell 120B column. Sample were analyzed by a gradient method with a mobile phase of Solvent A (water with 0.1% TFA) and Solvent B (acetonitrile with 0.1% TFA). Solvent B was ramped up from 5%-45% of the mobile phase over a period of 10 minutes.
FIG. 18 illustrates high performance liquid chromatograph (HPLC) traces of peptides in non-reducing (NR) conditions (solid trace) or in 10 mM DTT reducing (R) conditions (dashed trace). […]

Row | Substance | Resistance to DTT Reduction (10 mM)
8 | 48 (GSGIGDPVTCLKSGAICHPVFCPRRYKQIGTCGLPGTKCCKKP) [compound 48] | Low (A peptide classified as low indicates that the majority (over 75%) of the HPLC peak of the treated peptide disappeared as compared to the HPLC peak of the untreated peptide)
9 | 14 (GSSDYCSNDFCFFSCRRDRCARGDCENGKCVCKNCHLN) [compound 14] | Low (A peptide classified as low indicates that the majority (over 75%) of the HPLC peak of the treated peptide disappeared as compared to the HPLC peak of the untreated peptide)
10 | 20 (GSGHACYRNCWREGNDEETCKERC) [compound 20] | Low (A peptide classified as low indicates that the majority (over 75%) of the HPLC peak of the treated peptide disappeared as compared to the HPLC peak of the untreated peptide)
11 | 1 (GSDCLPHLRRCRADNDCCGRRCRRRGTNAERRCR) [compound 1] | Low (A peptide classified as low indicates that the majority (over 75%) of the HPLC peak of the treated peptide disappeared as compared to the HPLC peak of the untreated peptide)
12 | 46 (GSDCKYKFENWGACDGGTGTKVRQGTLKKARYNAQCQETIRVTKPC) [compound 46] | Low (A peptide classified as low indicates that the majority (over 75%) of the HPLC peak of the treated peptide disappeared as compared to the HPLC peak of the untreated peptide)
13 | 41 (GSPDEYIERAKECCKKGDIQCCLRYFEESGDPNVMLICLACP) [compound 41] | Low (A peptide classified as low indicates that the majority (over 75%) of the HPLC peak of the treated peptide disappeared as compared to the HPLC peak of the untreated peptide)
14 | 26 (GSVGCEECPMHCKGKNANPTCDDGVCNCNV) [compound 26] | Low (A peptide classified as low indicates that the majority (over 75%) of the HPLC peak of the treated peptide disappeared as compared to the HPLC peak of the untreated peptide)
15 | 44 (GSPDEYIERAKECCKKQDIQCCLRIFDESGDPNVMLICLFCW) [compound 44] | Moderate (A peptide classified as medium indicates that about half (between 25% and 75%) of the HPLC peak of the treated peptide disappeared as compared to the HPLC peak of the untreated peptide)

Same assay, conditions: 10 mM DTT; HPLC vs non-reduced peptide

Row | Substance | resistance to reduction by DTT (in words)
16 | GSDCLPHLRRCRADNDCCGRRCRRRGTNAERRCR [SEQ ID NO: 1] | not resistant

Molecular target: pepsin (Sus scrofa, UniProt P00791)
Sequence (P00791 60-385): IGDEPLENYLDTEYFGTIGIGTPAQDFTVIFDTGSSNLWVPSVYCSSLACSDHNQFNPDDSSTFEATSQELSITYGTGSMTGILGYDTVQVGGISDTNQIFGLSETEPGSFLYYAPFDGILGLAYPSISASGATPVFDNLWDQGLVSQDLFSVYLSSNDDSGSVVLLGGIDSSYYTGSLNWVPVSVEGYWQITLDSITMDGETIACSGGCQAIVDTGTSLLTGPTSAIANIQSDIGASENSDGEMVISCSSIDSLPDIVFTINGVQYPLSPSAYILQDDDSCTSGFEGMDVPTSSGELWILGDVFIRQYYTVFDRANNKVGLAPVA
Test: Pepsin digestion resistance in simulated gastric fluid, RP-HPLC
Assay type: in vitro ADME, porcine
Design: purchased Sigma Aldrich P7012
Details: 500 U/ml pepsin in SGF pH 1.05, 30 minutes at 37.5° C.; HPLC peak vs untreated peptide
How it was run: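 Peptide (12.5 μg) incubated 30 min at 37.5 °C with or without 500 U/ml pepsin in simulated gastric fluid (pH 1.05; 2% NaCl in 0.7% HCl); some reactions quenched with 100 mM Tris and 10 mM DTT. Intact peptide followed by C-18 RP-HPLC (5–45% acetonitrile/0.1% TFA over 10 min) at 214 and 280 nm.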

Row | Substance | Resistance to Pepsin (500 U/ml)
17 | 48 (GSGIGDPVTCLKSGAICHPVFCPRRYKQIGTCGLPGTKCCKKP) [compound 48] | High (A peptide classified as high indicates that the majority (at least 75%) of the HPLC peak of the treated peptide is still present as compared to the HPLC peak of the untreated peptide)
18 | 14 (GSSDYCSNDFCFFSCRRDRCARGDCENGKCVCKNCHLN) [compound 14] | Moderate (A peptide classified as medium indicates that about half (between 25% and 75%) of the HPLC peak of the treated peptide disappeared as compared to the HPLC peak of the untreated peptide)
19 | 20 (GSGHACYRNCWREGNDEETCKERC) [compound 20] | High (A peptide classified as high indicates that the majority (at least 75%) of the HPLC peak of the treated peptide is still present as compared to the HPLC peak of the untreated peptide)
20 | 46 (GSDCKYKFENWGACDGGTGTKVRQGTLKKARYNAQCQETIRVTKPC) [compound 46] | Low (A peptide classified as low indicates that the majority (over 75%) of the HPLC peak of the treated peptide disappeared as compared to the HPLC peak of the untreated peptide)

System: not listed separately
Test: Resistance to elevated temperature, HPLC
Assay type: physicochemical
Details: 75° C. for one hour; HPLC peak vs untreated peptide
Protocol: as §1
This example illustrates peptide stability at high temperatures. Peptides were first suspended in 500 μl of ddH2O to a stock concentration of 2 mg/ml. Reactions were prepared by adding 6.25 μl of peptide from the stock solution with 95 μl ddH2O and incubated at room temperature, 70° C., or 100° C. for one hour in a Thermocycler. RP-HPLC was then run on samples using an Agilent 1260 HPLC equipped with a C-18 Poroshell 120B column. Sample were analyzed by a gradient method with a mobile phase of Solvent A (water with 0.1% TFA) and Solvent B (acetonitrile with 0.1% TFA). Solvent B was ramped up from 5%-45% of the mobile phase over a period of 10 minutes.

Row | Substance | Resistance to Temperature (75° C.)
21 | 48 (GSGIGDPVTCLKSGAICHPVFCPRRYKQIGTCGLPGTKCCKKP) [compound 48] | High (A peptide classified as high indicates that the majority (at least 75%) of the HPLC peak of the treated peptide is still present as compared to the HPLC peak of the untreated peptide)
22 | 14 (GSSDYCSNDFCFFSCRRDRCARGDCENGKCVCKNCHLN) [compound 14] | High (A peptide classified as high indicates that the majority (at least 75%) of the HPLC peak of the treated peptide is still present as compared to the HPLC peak of the untreated peptide)
23 | 20 (GSGHACYRNCWREGNDEETCKERC) [compound 20] | High (A peptide classified as high indicates that the majority (at least 75%) of the HPLC peak of the treated peptide is still present as compared to the HPLC peak of the untreated peptide)
24 | 46 (GSDCKYKFENWGACDGGTGTKVRQGTLKKARYNAQCQETIRVTKPC) [compound 46] | High (A peptide classified as high indicates that the majority (at least 75%) of the HPLC peak of the treated peptide is still present as compared to the HPLC peak of the untreated peptide)

Same assay, conditions: 100° C. for one hour; HPLC peak vs untreated peptide

Row | Substance | Resistance to Temperature (100° C.)
25 | 48 (GSGIGDPVTCLKSGAICHPVFCPRRYKQIGTCGLPGTKCCKKP) [compound 48] | High (A peptide classified as high indicates that the majority (at least 75%) of the HPLC peak of the treated peptide is still present as compared to the HPLC peak of the untreated peptide)
26 | 14 (GSSDYCSNDFCFFSCRRDRCARGDCENGKCVCKNCHLN) [compound 14] | High (A peptide classified as high indicates that the majority (at least 75%) of the HPLC peak of the treated peptide is still present as compared to the HPLC peak of the untreated peptide)
27 | 20 (GSGHACYRNCWREGNDEETCKERC) [compound 20] | Moderate (A peptide classified as medium indicates that about half (between 25% and 75%) of the HPLC peak of the treated peptide disappeared as compared to the HPLC peak of the untreated peptide)
28 | 46 (GSDCKYKFENWGACDGGTGTKVRQGTLKKARYNAQCQETIRVTKPC) [compound 46] | Low (A peptide classified as low indicates that the majority (over 75%) of the HPLC peak of the treated peptide disappeared as compared to the HPLC peak of the untreated peptide)
